Molecular target: the molecule itself
Assay: crystal structure

B1: hRIO2(1-321) (domain or fragment, human, UniProt Q9BVS4 1-321, looked up)
chain: MGKVNVAKLRYMSRDDFRVLTAVEMGMKNHEIVPGSLIASIASLKHGGCNKVLRELVKHKLIAWERTKTVQGYRLTNAGYDYLALKTLSSRQVVESVGNQMGVGKESDIYIVANEEGQQFALKLHRLGRTSFRNLKNKRDYHKHRHNVSWLYLSRLSAMKEFAYMKALYERKFPVPKPIDYNRHAVVMELINGYPLCQIHHVEDPASVYDEAMELIVKLANHGLIHGDFNEFNLILDESDHITMIDFPQMVSTSHPNAEWYFDRDVKCIKDFFMKRFSYESELFPTFKDIRREDTLDVEVSASGYTKEMQADDELLHPLGP
  binding result: binds
